From the nanobody polyreactivity screen of Harvey et al. (2022)

Assay: yeast display, Sf9 membrane polyspecificity reagent, FACS + sequencing; frameworks hold sequencing errors
Outline: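 A nanobody's polyreactivity label depends on the gate it was sorted from. Yeast display cells were stained with 10% biotinylated, detergent-solubilized Sf9 membrane reagent for 1 hour at 4 °C, enriched on streptavidin microbeads and sorted by FACS. The low and high (top ~1%) gates were set on anti-HA fluorescence for expression and streptavidin fluorescence for reagent binding.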

Sequence	polyreactivity (PSR sort gate)
QVQLVESGGGLVQAGGSLRLSCAASGRIFPTYAMGWYRQAPGKERELVAAITWRGGRTYYADSVKGRFTISRDNAKNTVYLQMNSLKPEDTAVYYCAAGWLTRSYEYDYWGQGTQVTVSS	high polyreactivity
QVQLVESGGGLVQAGGSLRLSCAASGSIFAIYVMGWYRQAPGKERELVAAISYRSGSTYYADSVKGRFTISRDNAKNTVYLQMNSLKPEDTAVYYCAATSRYYTFGYWGQGTQVTVSS	low polyreactivity
QVQLVESGGGLVQAGGSLRLSCAASGRTFDYYAMGWYRQAPGKERELVARISWNGGSTRYADSVKGRFTISRDNAKNTVYLQMNSLKPEDTAVYYCAARYILLARKYDYWGQGTQVTVSS	high polyreactivity
QVQLVESGGGLVQAGGSLRLSCAASGSLFPHYAMGWNRQAPGKEREFVATISGSTGRTYYADSVKGRFTISRDNAKNTVYLQMNSLKPEDTAVYYCATSVGYYLPPIKYDYWGQGTQVTVSS	low polyreactivity
QVQLVESGGGLVQAGGSLRLSCAASGSIFGLNAMGWYRQAPGKERELVAAISGGSTNYADSVKGRFTISRDNAKNTVYLQMNSLKPEDTAVYYCAARARRRYYYWGQGTQVTVSS	high polyreactivity
QVQLVESGGGLVQAGGSLRLSCAASGSTLYVYTMGWYRQAPGKERELVAGITRGGSTYYADSVKGRFTISRDNAKNTVYLQMNSLKPEDTAVYYCAARSSYREYYWGQGTQVTVSS	high polyreactivity
QVQLVESGGGLVQAGGSLRLSCAASGITFWHNTMGWYRQAPGKERELVAAISWTGGRTYYADSVKGRFTISRDNAKNTVYLQMNSLKPEDTAVYYCAADFSWTPSGNYDSWGQGTQVTVSS	low polyreactivity
QVQLVESGGGLVQAGGSLRLSCAASGIIFRGNAMGWYRQAPGKERELVAAISSGGSTYYADSVKGRFTISRDNAKNRVYLQMNSLKPEDTAVYYCNARWYYWGTLYGSWGHGTQVTVSS	high polyreactivity
QVQLQESAGGRQPAPELRGERLYFWLLLMGWYRQAPGEERELVAGINYGASTNYSDSVKGRFTISRDNARNTVYLKMNSLKPGDTAVYYCAVWQPVLIWFYYWGQGTQVTVSS	high polyreactivity
QVQLVESGGGLVQAGGSLRLSCAASGRIFPGNAMGWYRQAPGKERELVADITSGGSTNYADSVKGRFTISRDNAKNTVYLQMNSLKPEDTAVYYCAVRQIYQTSDHRLQYDYWGQGTQVTVSS	low polyreactivity
QVQLVESGGGLVQAGGSLRLSCAASGRIFSWYAMGWYRQAPGKERELVARITTRGGNTYYADSVKGRFTFSRDNAKNTVYLQMNSLKPEVTAVYYCAARHPYPIYDYWGQGTQVSVSS	low polyreactivity
QVQLVESGGGLVQAGGSLRLSCAASGSTFHSNAMGWYRQAPGKERELVAAISQGGGRTYYADSVKGRFTISRDNAKNTVYLQMNSLKPEDTAVYYCNRRTRGLIDGGMDYWGQGTQVTVSS	low polyreactivity
QVQLVESGGGLVQAGGSLRLSCVASGRIFQSYAMGWYRQAPGKERELVARITGGSSTYYADSVKGRFTISRDNAKNTVYLQMNSLKPEDTAVYYCAARTRGPDRARYDYWGQGTQVTVSS	low polyreactivity
QVQHVESGGGLVQAGGSLRLSCAASGSIFAYYAMGWYRQAPGKERELVAAISYRGGSTYYADSVKGRFTISRDNAKNTVYLQMNSLKPEDTAVYYCNAGGRRRIFAHSSTGDYWGQGTQVTVSS	high polyreactivity
QVQLVESGGGLVQAGGSLRLSCAASGITFYVYAMGWYRQAPGKERELVAAISGSGGNTYYADSVKGRFTISRDNAKNTVYVQMNSLKPEDTAVYYCNADDHSPYYCDLDYWGQGTQVTVSS	low polyreactivity
QVQLVESGGGLVQAGGSLRLSCAASGSNFLSYAMGWYRQAPGKERELVAAITGSGGNTYYADSVKGRFTISRDNAKHTVYLQMKSLKPEDTAVYYCSAVATRSNYWRGFYYWGQGTKVTVSS	high polyreactivity
QVQLVESGGGLVQAGGSLRLSCAASGRILASYAMGWYRQAPGKERELVAAISRSGGSTYYADSVKGRFTISRDNAKNTVYLQMNSLKPEDTAVYYCAAKYPQKTPVNSYGNSFYYWGQGTQVTVSS	high polyreactivity
QVQLVESGGGLVQAGGSLRLSCAASGSTFLLYAMGWYRPAPGKERELVATISWGGDGTYYADSVKGRFTISRDNAKNTVYLHLNSLKPEDSAVYYCAAYSYFGYYWDGQLPYRLPYDYWGQGTQVTLSS	low polyreactivity
QVQLVESGAGLVQAGGSLRLSCAASGFTFQNYAMGWYRQAPGKERELVAAIDSRGGRTYYADSVKGRFTISRDNAKNSVYLQMNSLKPEDTAVYYCAVAENKRFGSVGYYYWGQGTQVTVSS	low polyreactivity
QVQLVESGVGLVQAGGSLRLSCAASGFISVNNAMGWYRQAPGKERELVAAITDTDDSTYADSVKGRFTISRDNAKNTVYLQMNSLKPEDTAVYYCAAGIIYSNEPNITSYDYWGQGTQVTVSS	low polyreactivity
QVQLVESGGGLVQAGGSLRLSCAASGSIFYSNAMVWYRQAPGKEREFVAAISTSAGRTYYADSVKGRFTISRDNAKNKVYLQLNSLNPEDTEVYYCAAGTNYGKLRIRFDYWGQGTQVTVSS	low polyreactivity
QVQLVESAAGLVQAGGSLRLSCAASGFIFHCNAMGWSRQAPGKERELVAAISDTADITHYADSVKGRFTISRDNAKNTVYLQMNSLKPEDTAVYFCNAGSGVQVVWYKPYREYEYWGQGTQVTVSS	low polyreactivity

Sequence	polyreactivity (PSR sort gate)
QLQLVESGGGLVQAGGSLRLSCAASGFTFSDYARGWYRQAPGKERELVAAINTSGGSTYYADSVKGRFTISRDNAKNTVYLQMNSLKPEDTAVYYCAAKYASLDRRRRKYDYWGQGTQVTVSS	high polyreactivity
QVQLVESGGGLVQAGGSLRLICAASGRTLSGYAMGWYRQAPGKERELVAAISSDGRTYYADSVKGRFTISRDNAKNTVYLQMNSLKPEDTAVYYCAKVRRGSYGYWGQGTQVTVSS	high polyreactivity
QVQLVESGGGLVQAGGSLRLSCAASGFIFRYYTMRWYRQAPGKERELVAVITSGGTTYYADSVKGRFTISRDNAMNTVYLQMNSLKPEDTAVSYCAADYRPRLYGVGVDYWGQGTQVTVSS	low polyreactivity
QVQLEESGGGLVQAGGSLRLSCAASGRIFYTYVMGWYRQAPEKERELVAAITGGGSKYYAYSVKGRFTISRDNAKNTVYLQMNSLKPEDTAVSYCAKRSYGDRDERYDSWGQGTQVTVSS	low polyreactivity
QVQLVESGGGLVQAGGSLRLSCAASGRIFRKYTMGWYRQAPGKERELVAAISRNGGDTYYADSVKGRFTISRDNAKNTVYLQMHSLKPEDPAVYYCNARTPPDSTHFAYWGQGTQVTVSS	low polyreactivity
QVQLVESGAGLVQAGGSLRLSCAASGSIFSPYDMGWYRPAPGKERELVAAISRSGRTHYADSVKGRFTISRDNAKNTVYLQMNSLKPEDTAVYYCAAGVVSGYYYWGHGTQVTVSS	high polyreactivity
QVQLVESGGVLVQAGGSLRLSCAASGLTFGGNAKGWYRPAPGKERELVAAISWSDDTTDYADSVKGRFTISRDNAKNTVYLQMNSLKPEDTAVYYCAARLPFEYVDYWGQGTQVTVSS	low polyreactivity
QVQLQESGGGLVQACGSQRLSCAASGSICEGQDMGWYRRAPGKEREFVAGIAPGATTYYADSVKGRFTISRDNAKNTVYLQMNSLKPEDTAVYYCAARSVTETDHDSWGQGTQVTVSS	low polyreactivity
QVQLVETVRGLVQAGGSLRITCAASGRIYAYYSMGWYRQPPGKERELVAAITRSGGSTYYADSVKGRFTNSRDIAKYTVYIQMISLKPEDNAVYYCAPSLNVPYATMNYWGQGTQVTVSA	high polyreactivity
QVQLVESGGGLVQAGGSLRLSCAASGITFASYVMGWYRQAPGKERELVAAISSSGGSTYYADSVKGRFTISRDNAKNTVYLQMNSLKPEDTAVYYCKARLYYSWRSTYDYWGQGTQVTVSS	high polyreactivity
QVQLVESGGGLVQAGGSLRLSCAASGSTFNTNTMGWYRQAPGKERELVAAISQSGTRTYYANSVKGRFTISRDNAKYTVYFQMNSLKPEDTAVYYCSADRQRYTSSSRKGLGYWGQGTQVTVSS	high polyreactivity
QVQLVESGGGLVQAGGSLRLSCAASGRTFKYYAMGWYRQAPGKERELVASISNGGNTNYADSVKGRFTISRDNAKNTVYLQMNSLKPEDTAVYYCAAGYVVATRYDYWGQGTQVTVSS	high polyreactivity
QVQLVESGGGLVQAGGSLRLSCAASGRTFNLNAMGWYRQAPGKEREFVAAISNSGVRTYYADSVKGRFTISRDNAKNTVYLQMNSLKPVDTAVYYCARTYQVGDSIDDYWGQGTQVTVSS	low polyreactivity
QVQLVESGGGLVQAGGSLRLSCAASGRIFVQYAMGWYRQAPGKERELVAAISKSGVRTFYADSVKGRFTISRDNAKNTVYLQMNSLKPEDTAVYYCNKAYRVGRTEFNYWGQGTQVTVSS	high polyreactivity
QDQLEESGGGLVQAGGSLRLSCAASGYTISPNDMGWYRQAPGKERELVAAITSSVGSTYYADSVKGRFSFSRDNAKNTVYLQMKSLKPEDTAVYYYWGQGTQVTVSS	low polyreactivity
QVQLQESGGGLAQAGGCLRLSCAASGTIFPADSMGWYRQAPGIERELVAGITSGANTYYADSVKGRFTISHDNAKNTVYLQMDSLIPEDIAVYYCAAPGSSTYDLEYWGQGTQGTVSS	high polyreactivity
QVQLVESGGGLVQAGGSLRLSCAASGSIFKFYAMGWYRQAPGKERELVAAISSSGTSTYYADSVKGRFTISRDNAKNTVYLQMNSLKPEDTAVYYCAARGGVQNEVKGSPYYYWGQGTQVTVSS	high polyreactivity
QVQLVESGGGLVQAGGSLRLSCAASGRIFGKYAMGWYRQAPGKEWELVAAISSSGGSTYYADSVKGRFTISRDNAKNTVYLQMNSLKPEDTAVYYCNAPQYWRRSYREYDYWGQGTQVTVSS	high polyreactivity
QVQLVESGGGLVQAGGSLRLSCAASGRTFGYYAMGWYRQAPGKERELVAAITRTGGSTHYADSVKGRFTISRDNAKNTVYLQKNSLKPEDTAVYYCARDYRYTIPYDYWGQGTQVTVSS	low polyreactivity
QVQLVESGAGLVQAGGSLRLSCAASGSTFHYYAMGLYRQAPGKERELVATITWRGGFTYYADSVKGRFTISRDNAKNTVYLQMNSLKPEDTAGYYCTDYYVRRYRDPRLYYWGQGTQVTVSS	high polyreactivity
QVQLVESGGGLVQAGGSLRLSCAASGRIFIYNAMGWYRQAPGKEREFVAAISRTGGNTYYADSVKGRFTISRDNAKNTVYLQMNSLKPEDTAVYYCATKRKWTYLSYDYWGQGTQVTVSS	low polyreactivity
